The values below are quoted from earlier work in article PMC4385930.

Among the targets are Bax BH3 (Homo sapiens) (UniProt Q07812); Bak BH3 (Homo sapiens) (UniProt Q16611); Bim BH3 (Homo sapiens) (UniProt O43521).

Turning to F1L (from UniProt P24356), the equilibrium dissociation constant (Kd) is 2000 nM with Bax BH3 (Homo sapiens), 4300 nM with Bak BH3 (Homo sapiens) and 200 nM with Bim BH3 (Homo sapiens).
